Reference: patent US20210171601A1 (Memorial Sloan Kettering, published 2021)
Where no end group is shown, it is not given here.

B1: IL-3 zipperkine (IL-3 cytokine with C-terminal FLAG-tag and RR12EE345L leucine zipper) (ligand)
chain: ASISGRDTHRLTRTLNCSSIVKEIIGKLPEPELKTDDEGPSLRNKSFRRVNLSKFVESQGEVDPEDRYVIKSNLQKLNCCLPTSANDSALPGVFIRDLDDFRKKLRFYMVHLNDLETVLTSRPPQPASGSVSPNRGTVECGSGDYKDDDDKLEIRAAFLRQRNTALRTEVAELEQEVQRLENEVSQYETRYGPLGGGK
B2: RR12EE345L leucine zipper with a linked affinity tag (peptide, not shown: small tags and cut ends)
chain: LEIRAAFLRQRNTALRTEVAELEQEVQRLENEVSQYETRYGPLGGGK
modifications: not fully specified (N-terminus)
notes: Secreted tagged zipper of the two-vector sorting system

Key:
[1] = target: T1, leucine zipper-based CAR (ZipR-CAR), e.g. EE12RR345L:CD28zeta; test: co-expression in T cells (FIG. 8)
T1 construct: Used where the text speaks of 'the ZipR-CAR' without naming the spacer; Expressed on T cells; also called leucine zipper receptor-based CAR; EE-CAR

[2] = target: T2, membrane-bound leucine zipper (EE12RR345L); test: both co-transduced into the same cell; affinity tag detected on the cell surface by flow cytometry
T2 construct: Expressed on the surface of the transduced cell; not shown: spacer, transmembrane and any intracellular part of the construct of this experiment are not specified

Binder	binding result [1]	binding result [2]
B1	binds	
B2		binds
